For 28 sequences, Kd results are on record in the Immune Epitope Database (IEDB).

The target of assay [1] is HLA-B*58:01. The assay is described as follows: IEDB peptide-MHC binding, purified MHC/direct/fluorescence; filed as Kd, often an IC50 or EC50 that approximates it; ≥ and ≤ were set here for values at or beyond the usual limits of such assays. The settings on record: source organism: Brucella suis.
For assay [2], the target named is HLA-A*69:01. The assay is described as above. To be noted: source organism: Brucella suis.
Assay [3] addresses HLA-A*11:01. Described as above. To be noted: source organism: Brucella suis.
Assay [4] deals with HLA-B*27:05. The assay is described as above. The settings on record: source organism: Brucella suis.
The target of assay [5] is HLA-A*26:01. The assay is described as above. To be noted: source organism: Brucella suis.
For assay [6], the target named is HLA-B*44:02. The description is as above.
Assay [7] concerns the target HLA-B*15:01. The description is as above. To be noted: source organism: Brucella suis.
In assay [8] the target is HLA-A*02:01. The assay is described as above. The settings on record: source organism: Brucella suis.
Assay [9] concerns the target HLA-B*40:01. The description is as above.
Assay [10] addresses HLA-A*31:01. The assay is described as above. To be noted: source organism: Brucella suis.
Assay [11] addresses HLA-A*01:01. The description is as above. To be noted: source organism: Brucella suis.
Assay [12] addresses HLA-A*03:01. Described as above. To be noted: source organism: Brucella suis.
The target of assay [13] is HLA-B*08:01. The description is as above. To be noted: source organism: Brucella suis.
Assay [14] deals with HLA-B*07:02. The description is as above. To be noted: source organism: Brucella suis.
Assay [15] deals with HLA-A*23:01. The assay is described as follows: IEDB peptide-MHC binding, purified MHC/competitive/radioactivity; filed as Kd, often an IC50 or EC50 that approximates it; ≥ and ≤ were set here for values at or beyond the usual limits of such assays.
For assay [16], the target named is HLA-A*24:02. The assay is described as above.
In assay [17] the target is HLA-B*18:01. Description: IEDB peptide-MHC binding, purified MHC/direct/fluorescence; filed as Kd, often an IC50 or EC50 that approximates it; ≥ and ≤ were set here for values at or beyond the usual limits of such assays.
Assay [18] deals with HLA-A*26:01. The assay is described as follows: IEDB peptide-MHC binding, purified MHC/competitive/radioactivity; filed as Kd, often an IC50 or EC50 that approximates it; ≥ and ≤ were set here for values at or beyond the usual limits of such assays.
Assay [19] has as its target HLA-A*30:02. The description is as above.
For assay [20], the target named is HLA-A*29:02. The assay is described as above.
Assay [21] concerns the target HLA-A*01:01. The description is as above.
Where [22] appears, read: source organism: Dengue virus 2 Jamaica/1409/1983.
[23] abbreviates: source organism: SARS coronavirus Tor2.
The mark [24] stands for this setting: source organism: Mammarenavirus guanaritoense.
Setting [25] is: source organism: Dengue virus 1 Brazil/97-11/1997.
Where [26] appears, read: source organism: Mammarenavirus brazilense.
[27] abbreviates: source organism: Mammarenavirus lassaense.
Setting [28] is: source organism: Lymphocytic choriomeningitis virus (strain Armstrong).
The mark [29] stands for this setting: source organism: Mammarenavirus juninense.
Where [30] appears, read: source organism: Mammarenavirus machupoense.

Consider DVIGNDRQE, for which the dissociation constant Kd in assay [1], in assay [2], in assay [3], in assay [4], in [5] and in [6] (source organism: Brucella suis) was not below 20 µM throughout. Moreover, the Kd in assay [7], in assay [8], in [9] (source organism: Brucella suis), in assay [10], in assay [11] and in assay [12] was not below 20 µM throughout. The dissociation constant Kd in assay [13] and in [14] was not below 20 µM each time.
For WYAQIQPHW, the values for the Kd in assay [15] (setting [22]) and in assay [16] (setting [22]) were 0.0621 µM and 0.0243 µM, respectively.
In assay [17] (source organism: West Nile virus), KENGVDLSV had a Kd of 5.22 µM.
In the case of DHEFVDEFY, the Kd in [15] (setting [23]) was not below 66.2 µM; in assay [18] (setting [23]) it was 13.9 µM; in assay [19] (setting [23]) it was not below 22.5 µM; in [20] (setting [23]), 1170 nM; in assay [21] (setting [23]) it was 0.262 µM; in assay [16] (setting [23]) it was not below 77.6 µM.
With SWLDFDEKLV, the equilibrium dissociation constant (Kd) in assay [15] (setting [24]) was 0.32 µM; in assay [18] (setting [24]), not below 69.7 µM; in [19] (setting [24]), 4.94 µM; in assay [20] (setting [24]) it was not below 71400 nM; in assay [21] (setting [24]) it was 6.1 µM; in [16] (setting [24]), 14 µM.
Take LWTTLLSLTF: the values for the Kd in assay [15] (setting [25]) and in assay [16] (setting [25]) were 0.0206 µM and 0.0143 µM, respectively.
Take DEALRGFLLY: the Kd in assay [15] (setting [26]) is 5.86 µM; in assay [18] (setting [26]), not below 69.7 µM; in assay [19] (setting [26]), not below 69.7 µM; in assay [20] (setting [26]) it was not below 59100 nM; in assay [21] (setting [26]) it was 14.8 µM; in assay [16] (setting [26]), not below 37.5 µM.
For the sequence EMVMCGGSLY, the dissociation constant (Kd) was not below 70 µM in [15] (setting [23]); 0.0199 µM in assay [18] (setting [23]); 0.0381 µM in [19] (setting [23]); 13.9 nM in assay [20] (setting [23]); 0.468 µM in [21] (setting [23]); not below 70.3 µM in assay [16] (setting [23]).
Regarding YEEFCNAVY, the Kd was 10.1 µM in assay [15] (setting [27]); not below 77.9 µM in assay [18] (setting [27]); 0.762 µM in assay [19] (setting [27]); 426 nM in assay [20] (setting [27]); 5.37 µM in assay [21] (setting [27]); not below 77.5 µM in [16] (setting [27]).
Regarding FFQDIPIFF, the Kd in [15] (setting [24]) stood at 0.0103 µM; in assay [20] (setting [24]), 0.08 nM; in assay [16] (setting [24]), 0.159 µM.
For the sequence LSHLSLGLI, the dissociation constant (Kd) in assay [15] (setting [26]) is 7.76 µM; in assay [20] (setting [26]), 9100 nM; in [16] (setting [26]) it was not below 21 µM.
As for QEGAMHTAL, the dissociation constant (Kd) stood at 6.66 µM in assay [6] (source organism: Dengue virus) and 0.0395 µM in assay [17] (source organism: Dengue virus).
For the sequence DEEPMELDY, the Kd was not below 59 µM in [15] (setting [23]); not below 73.6 µM in assay [18] (setting [23]); not below 42 µM in [19] (setting [23]); 1130 nM in assay [20] (setting [23]); 2 µM in assay [21] (setting [23]); not below 77.6 µM in assay [16] (setting [23]).
For YECETYKEL, the figures for the Kd in [6] (source organism: Amur virus), in assay [9] (source organism: Amur virus) and in assay [17] (source organism: Amur virus) were not below 20 µM, 0.0148 µM and 0.0053 µM, respectively.
With DTVWEVQGY, the dissociation constant Kd in assay [15] (setting [23]) was not below 77.8 µM; in [18] (setting [23]), 0.00164 µM; in [19] (setting [23]), 1.32 µM; in [20] (setting [23]), 4250 nM; in assay [21] (setting [23]), 8.02 µM; in assay [16] (setting [23]), not below 77.6 µM.
For the sequence QMYKTPTLKY, the Kd is not below 70 µM in assay [15] (setting [23]); 3.12 µM in assay [18] (setting [23]); 0.0552 µM in assay [19] (setting [23]); 6.81 nM in [20] (setting [23]); 8.92 µM in [21] (setting [23]); not below 70.3 µM in assay [16] (setting [23]).
For the sequence WCEFVDFSV, the Kd in [15] (setting [24]) was not below 53.3 µM; in [18] (setting [24]) it was not below 77.9 µM; in [19] (setting [24]), 7.9 µM; in assay [20] (setting [24]), 2470 nM; in assay [21] (setting [24]), 0.341 µM; in [16] (setting [24]), not below 77.5 µM.
As to GYLKPTTFML, the Kd in assay [15] (setting [23]) is 0.0336 µM; in [18] (setting [23]) it was not below 69.7 µM; in assay [19] (setting [23]) it was 5.13 µM; in assay [20] (setting [23]) it was 1020 nM; in assay [21] (setting [23]) it was not below 28.4 µM; in assay [16] (setting [23]) it was 0.103 µM.
Turning to QYLIIQNRTW, the equilibrium dissociation constant (Kd) in [15] (setting [28]) stood at 0.0574 µM; in assay [20] (setting [28]) it was 687 nM; in [16] (setting [28]), 0.693 µM.
As for TSQKSIVAY, the Kd in assay [15] (setting [23]) is not below 77.8 µM; in [18] (setting [23]), 8.25 µM; in assay [19] (setting [23]), 0.0254 µM; in assay [20] (setting [23]), 2080 nM; in assay [21] (setting [23]) it was 1.18 µM; in assay [16] (setting [23]), not below 77.6 µM.
For VGRAWENTI, the dissociation constant (Kd) in [15] (setting [27]) is 2.95 µM; in assay [18] (setting [27]), not below 77.9 µM; in [19] (setting [27]), 0.0991 µM; in assay [20] (setting [27]) it was not below 78900 nM; in [21] (setting [27]) it was not below 26.7 µM; in assay [16] (setting [27]) it was 8.77 µM.
For the sequence PEDPVEVALY, the Kd is not below 70 µM in assay [15] (setting [27]); not below 69.7 µM in assay [18] (setting [27]); 1.43 µM in assay [19] (setting [27]); not below 43400 nM in [20] (setting [27]); not below 41 µM in assay [21] (setting [27]); not below 70.3 µM in [16] (setting [27]).
For the sequence VYIGDPAQL, the Kd in assay [15] (setting [23]) is 1.18 µM; in assay [18] (setting [23]), not below 77.9 µM; in assay [19] (setting [23]) it was not below 78.9 µM; in [20] (setting [23]) it was not below 22800 nM; in assay [21] (setting [23]) it was not below 78.1 µM; in assay [16] (setting [23]), 0.107 µM.
Regarding MLMLVNDRLL, the results for the Kd in assay [15] (setting [29]), in assay [20] (setting [29]) and in assay [16] (setting [29]) were 11.4 µM, not below 20000 nM and not below 70.3 µM, respectively.
As for EYADVFHLY, the Kd in assay [15] (setting [23]) is 0.176 µM; in [18] (setting [23]) it was 0.0277 µM; in [19] (setting [23]), 0.0108 µM; in assay [20] (setting [23]), 48.8 nM; in [21] (setting [23]), not below 26.2 µM; in assay [16] (setting [23]), 0.784 µM.
Turning to LYEQVVMDY, the dissociation constant Kd in [15] (setting [23]) is not below 58.2 µM; in assay [18] (setting [23]), not below 22.6 µM; in assay [19] (setting [23]) it was 0.173 µM; in [20] (setting [23]), 12.2 nM; in assay [21] (setting [23]), 15.1 µM; in assay [16] (setting [23]), not below 40.5 µM.
RCWLIRNGSY: the Kd in assay [15] (setting [30]) is not below 34.7 µM; in [18] (setting [30]), not below 69.7 µM; in assay [19] (setting [30]), 0.0161 µM; in [20] (setting [30]), 4810 nM; in assay [21] (setting [30]), not below 37.7 µM; in assay [16] (setting [30]), not below 70.3 µM.
In the case of KVINLSELL, the values for the dissociation constant (Kd) in assay [15] (setting [24]), in assay [20] (setting [24]) and in assay [16] (setting [24]) were 0.426 µM, 11900 nM and 17.6 µM, respectively.
